The target of one series is T1, LHRH-receptor (Bos taurus, UniProt P32236).
T1 construct: The tissue homogenate was then centrifuged at 15000 g for 15 min at 4° C. to separate the crude membrane from the buffer; from tissue; host or cells: bovine nasal mucosa (MTA, MTP, ITP regions) and bovine pituitary, crude membrane homogenates
T1 sequence (P32236 1-328): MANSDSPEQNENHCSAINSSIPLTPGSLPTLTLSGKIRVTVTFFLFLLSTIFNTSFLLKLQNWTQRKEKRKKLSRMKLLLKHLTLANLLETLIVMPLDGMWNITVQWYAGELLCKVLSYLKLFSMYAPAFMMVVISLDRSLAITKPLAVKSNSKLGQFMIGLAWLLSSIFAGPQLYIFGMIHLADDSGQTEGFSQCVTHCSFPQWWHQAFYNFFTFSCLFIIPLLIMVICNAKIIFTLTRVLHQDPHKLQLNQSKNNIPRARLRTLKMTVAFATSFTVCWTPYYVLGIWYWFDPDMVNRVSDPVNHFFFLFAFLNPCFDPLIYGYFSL
Put plainly: Receptor binding assays (kinetic, saturation, competition) with 125I-deslorelin in bovine pituitary and nasal tissue homogenates. To be noted: 4° C.; remained stable until 4 hr. As to the method:
Radioactivity was measured in the pellet using a Perkin-Elmer γ-counter.
Reprod. […] Reprod. […] Radioactivity was measured in the pellet using a Perkin-Elmer γ-counter. […] The experiment was repeated three times.
Competition Studies: To determine the amount of unlabelled deslorelin required to displace the radioactivity, competition studies were conducted. […] Assays were performed in triplicates. At the end of 4 hr, the incubation tubes were centrifuged at 10,000 g for 20 min at 4° C. to separate the bound fraction. Radioactivity was measured in the pellet using a Perkin-Elmer γ-counter. The same controls as in the kinetic and saturation studies were used. The experiment was repeated three times.

A short description of series [1]: Particle size, polydispersity and zeta-potential by dynamic light scattering. It is filed as physicochemical. To be noted: Table 6. The method, then:
Nanoparticle carrier particles were formed by the methods of the preceding Example, and characterized as follows. The particle size and the zeta-potential were measured using Zeta Plus zeta-potential analyzer (Brookhaven Instruments Ltd., New York, N.Y.), which employs the dynamic light scattering technique for particle size measurement. The particle size and zeta-potential measurements were made after 1:1000 dilution of particle stock in filtered deionized water. Further, the particles were visualized using a transmission electron microscope (TEM). The carbon-coated grids were floated on a suspension droplet of plain or functionalized nanoparticles on a flexible plastic film (Parafilm, Pechiney Plastic Packaging, Neenah, Wis.) to allow the adsorption of nanoparticles onto the grid. After drying the particles, uranyl acetate was added as a negative stain to the carbon grid and allowed to react with the particles. This procedure makes the particles electron dense, allowing their visualization using an electron microscope. The particles were photographed using EM410 Phillips electron microscope (Eindhoven, The Netherlands) set at 60 kV and a magnification of 153000×.
Characterization of particles: The particle size and the zeta-potential were measured using ZetaPlus® zeta-potential analyzer, Brookhaven Instruments Ltd. (New York, N.Y.), which employs the dynamic light scattering technique for particle size measurement. The particle size and zeta-potential measurements were carried out after 1:1000 dilution of particle stock in filtered deionized water before lyophilization in filtered deionized water. The effective diameter of conjugated nanoparticles was higher than that of unconjugated nanoparticles.
Particle Size Analysis: Particle size and zeta-potential of the nanoparticles before and after conjugation following lyophilization were measured in double distilled water (100 μl of particle/1 ml of water) using dynamic light scattering (DLS). After lyophilization the plasmid loaded particles were weighed (1 mg) into glass Kimble tubes. To each tube, 1 ml of double distilled water was added and vortexed at high speed (Vortex Genie, Scientific Industries, Bohemia, N.Y.) till the particles were resuspended. The particle size and zeta potential was determined using dynamic light scattering after dilution (1:10 in double distilled water) (Brookhaven Instruments Corp., Holtsville, N.Y.). Nanoparticle size after lyophilization was 210.4±0.68 nm and zeta potential was −32.85±0.87 mV. Nanoparticle size and zeta potential was measured after conjugation with deslorelin and transferrin. Similarly, the unconjugated nanoparticles were also treated under the same conditions as with the conjugated nanoparticles (the conjugation protocol as mentioned above).
Transport studies were conducted in bovine nasal tissue. Bovine nasal tissue was obtained from freshly slaughtered cattle, and different regions (MTA, MTP, ITP) were prepared as described in Example 13. Nanoparticles coupled to deslorelin or transferring via aldehyde sulfate moieties were prepared as described in Example 3. The nanoparticle size was measured using a Zeta Plus Analyzer (Brookhaven Instruments Limited, UK). Particle size was analyzed before and after ligand conjugation in deionized filtered water.

Another series concerns ARPE-19 cells. Put plainly: Nanoparticle uptake by human retinal pigment epithelial cells. It is filed as cell-based. Particulars: 1 ml of 100 μg/ml suspension in serum free medium. As to the method: A study was performed to examine the effect of targeting moieties on biodegradable and non-biodegradable carrier particles and their uptake in ocular cells. The biodegradable and non-biodegradable targeted carrier particles of the preceding Example were used. Uptake of nanoparticles by human retinal pigment epithelial cells (ARPE-19 cell line) was quantified by measuring fluorescence in cell lysate obtained after incubation of targeted or untargeted (unconjugated) nanoparticles with ARPE-19 cell monolayers.
ARPE-19 cells were obtained from American Type Culture Collection (ATCC, Manassas, Va.). The cells were maintained in culture according to supplier's recommendation. All studies were conducted using confluent cells of passages 20-30. Dulbecco's modified Eagle's medium (DMEM-F/12), fetal bovine serum, penicillin-streptomycin and L-glutamine were obtained from Gibco-BRL (Invitrogen Inc., Carlsbad, Calif.). Cell culture flasks (T-75 cm^2) and plates were purchased from Corning Inc., (Corning, N.Y.). To investigate the uptake of particles, ARPE-19 cells between 20-30 passages were cultured in 24-well plates until confluency. […] Fluorescence intensity of the cell lysates was determined at an excitation and emission wavelength of 505 and 515 nm, respectively, for FluoSpheres®. […]

Consider two substances from patent US8821943B2, “Methods and compositions for targeted delivery of therapeutic agents” (Board of Regents of the University of Nebraska, priority 2006, dated 2014).

For the substance “^125I-deslorelin: I^125 labeled deslorelin radioligand (EHWSYWLRP; D-residues; non-natural residues)”, the “time at which binding reached a maximum” value with LHRH-receptor was 1.5 h.

In turn, “Transferrin-PLGA: transferrin conjugated nile red loaded PLGA nanoparticles” displayed a Zeta potential in series [1] of −17.94 ± 1.5 mV. In addition, the Effective diameter in series [1] (1:1000 dilution in filtered deionized water) came out at 385.8 ± 4.6 nm. For the same substance, in the series on ARPE-19 cells, the “percentage uptake at 3 h by ARPE-19 cells” value is on record as 3.32±0.1%.
